The target in one experiment is 3×FLAG-ORF66. Description: pull-down.
Experiment [1] addresses 6×Myc-tagged ORF24 BD [1–400 aa]. In words: pull-down.
The mark [2] stands for this setting: 293T cells cotransfected, lysates pulled down with S-protein-agarose capturing 2×S-ORF34, parent: 1.00.

In the case of 2×S-tagged KSHV ORF34 WT C170A, the ratio to parent in the experiment with 3×FLAG-ORF66 (setting [2]) amounted to 0.05; in the experiment with 3×FLAG-ORF66 (parent: 1.000), 0.057; in experiment [1] (setting [2]) it was 0.32; in experiment [1] (parent: 1.000), 0.325.

On to 2×S-tagged KSHV ORF34 WT C175A, for which the ratio to parent in the experiment with 3×FLAG-ORF66 (setting [2]) came to 0.04; in the experiment with 3×FLAG-ORF66 (parent: 1.000), 0.039; in experiment [1] (setting [2]), 0.34; in experiment [1] (parent: 1.000), 0.345.

For the substance 2×S-tagged KSHV ORF34 WT C256A, the values for the ratio to parent in experiment [1] (setting [2]) and in experiment [1] (parent: 1.000) were 0.11 and 0.109, respectively.

In the case of 2×S-tagged KSHV ORF34 WT C259A, the ratio to parent in experiment [1] (setting [2]) turned out to be 0.03; in experiment [1] (parent: 1.000) it was 0.027.

Regarding 2×S-tagged KSHV ORF34 WT D154A, the ratio to parent came to 0.28 in the experiment with 3×FLAG-ORF66 (setting [2]), 0.282 with 3×FLAG-ORF66 (parent: 1.000), 0.51 in experiment [1] (setting [2]) and 0.512 in experiment [1] (parent: 1.000).

As for 2×S-tagged KSHV ORF34 WT E41A; T42A, the ratio to parent in the experiment with 3×FLAG-ORF66 (setting [2]) was 1.03; in the experiment with 3×FLAG-ORF66 (parent: 1.000) it was 1.03; in experiment [1] (setting [2]), 0.88; in experiment [1] (parent: 1.000), 0.877.

Consider 2×S-tagged KSHV ORF34 WT F47A, for which the ratio to parent amounted to 1.09 with 3×FLAG-ORF66 (setting [2]), 1.09 in the experiment with 3×FLAG-ORF66 (parent: 1.000), 0.86 in experiment [1] (setting [2]) and 0.859 in experiment [1] (parent: 1.000).

For the substance 2×S-tagged KSHV ORF34 WT G165A, the ratio to parent in the experiment with 3×FLAG-ORF66 (setting [2]) was found to be 0.02; with 3×FLAG-ORF66 (parent: 1.000), 0.022; in experiment [1] (setting [2]) it was 0.68; in experiment [1] (parent: 1.000), 0.68.

Turning to 2×S-tagged KSHV ORF34 WT G182A, the ratio to parent in the experiment with 3×FLAG-ORF66 (setting [2]) is 0.36; with 3×FLAG-ORF66 (parent: 1.000) it was 0.359; in experiment [1] (setting [2]), 1.28; in experiment [1] (parent: 1.000), 1.29.

Consider 2×S-tagged KSHV ORF34 WT L188A; L189A, for which the ratio to parent in experiment [1] (setting [2]) was 0.5; in experiment [1] (parent: 1.000) it was 0.503.

As to 2×S-tagged KSHV ORF34 WT Q264A; N265A, the ratio to parent stood at 0.67 in experiment [1] (setting [2]) and 0.665 in experiment [1] (parent: 1.000).

2×S-tagged KSHV ORF34 WT R234A: the ratio to parent came to 0.77 with 3×FLAG-ORF66 (setting [2]), 0.775 in the experiment with 3×FLAG-ORF66 (parent: 1.000), 0.74 in experiment [1] (setting [2]) and 0.74 in experiment [1] (parent: 1.000).

With 2×S-tagged KSHV ORF34 WT S168A, the ratio to parent in the experiment with 3×FLAG-ORF66 (setting [2]) turned out to be 0.97; in the experiment with 3×FLAG-ORF66 (parent: 1.000) it was 0.969; in experiment [1] (setting [2]) it was 0.94; in experiment [1] (parent: 1.000) it was 0.94.

As to 2×S-tagged KSHV ORF34 WT V50A, the ratio to parent in the experiment with 3×FLAG-ORF66 (setting [2]) stood at 1.11; with 3×FLAG-ORF66 (parent: 1.000), 1.11; in experiment [1] (setting [2]), 0.86; in experiment [1] (parent: 1.000), 0.861.

As for 2×S-tagged KSHV ORF34 WT W160A, the ratio to parent in the experiment with 3×FLAG-ORF66 (setting [2]) is 0.29; with 3×FLAG-ORF66 (parent: 1.000), 0.289; in experiment [1] (setting [2]), 0.47; in experiment [1] (parent: 1.000), 0.473.

For the substance 2×S-tagged KSHV ORF34 WT Y194A, the ratio to parent with 3×FLAG-ORF66 (setting [2]) came to 0.003; in the experiment with 3×FLAG-ORF66 (parent: 1.000), 0.003; in experiment [1] (setting [2]), 0.64; in experiment [1] (parent: 1.000), 0.645.

2×S-tagged KSHV ORF34 WT Y215A: the ratio to parent was 0.16 in the experiment with 3×FLAG-ORF66 (setting [2]), 0.167 with 3×FLAG-ORF66 (parent: 1.000), 1.02 in experiment [1] (setting [2]) and 1.02 in experiment [1] (parent: 1.000).

Take 2×S-tagged KSHV ORF34 WT Y310A: the ratio to parent with 3×FLAG-ORF66 (setting [2]) turned out to be 0.17; with 3×FLAG-ORF66 (parent: 1.000), 0.173; in experiment [1] (setting [2]), 0.96; in experiment [1] (parent: 1.000), 0.956.

(Values after paper PMC11334519.)
